Assay results: patent US20260242447A1 (CREATIVE BIOTHERAPEUTICS, published 2026)

Experiments:
[1] = biological target: T1, GRP78 (soluble / recombinant protein) (UniProt P11021 19-654); test: method not stated
T1 construct: also called GRP78-HRP; HRP-labeled GRP78

[2] = biological target: T1, GRP78 (soluble / recombinant protein)

T1 sequence (P11021 19-654 limits assumed): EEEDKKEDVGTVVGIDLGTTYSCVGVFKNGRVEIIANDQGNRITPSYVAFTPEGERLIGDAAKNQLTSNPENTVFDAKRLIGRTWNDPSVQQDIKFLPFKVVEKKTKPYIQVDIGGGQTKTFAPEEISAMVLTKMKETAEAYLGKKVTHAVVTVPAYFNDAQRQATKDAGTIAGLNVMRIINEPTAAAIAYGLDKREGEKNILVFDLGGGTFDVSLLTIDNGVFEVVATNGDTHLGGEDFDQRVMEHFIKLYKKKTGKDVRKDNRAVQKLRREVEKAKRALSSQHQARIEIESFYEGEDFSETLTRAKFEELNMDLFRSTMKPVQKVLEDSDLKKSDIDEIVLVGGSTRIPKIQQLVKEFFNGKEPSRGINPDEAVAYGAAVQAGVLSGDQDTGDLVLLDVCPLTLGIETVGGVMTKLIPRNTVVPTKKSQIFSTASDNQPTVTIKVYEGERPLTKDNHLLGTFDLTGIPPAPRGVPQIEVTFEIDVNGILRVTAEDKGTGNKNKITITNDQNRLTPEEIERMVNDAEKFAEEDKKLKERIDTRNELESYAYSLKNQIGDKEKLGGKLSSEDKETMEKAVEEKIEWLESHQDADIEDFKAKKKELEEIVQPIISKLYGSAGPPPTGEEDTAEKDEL

B1: K5 (5th kringle domain of human plasminogen) (other)
chain: SEEDCMFGNGKGYRGKRATTVTGTPCQDWAAQEPHRHSIFTPETNPRAGLEKNYCRNPDGDVGGPWCYTTNPRKLYDYCDVPQCAAPKS
notes: also called kringle 5
Kd [1]: 0.0006 µM | IC50 [2]: 0.46 µM
